Experimental data reported in PMC8004850, “The Histidine Phosphocarrier Kinase/Phosphorylase from Bacillus Subtilis Is an Oligomer in Solution with a High Thermal Stability” (International Journal of Molecular Sciences, 2021).

Molecular target: the molecule itself
Assay: small-angle X-ray scattering (SAXS); 50 mM sodium phosphate buffer pH 7.0, 36 (legend: 35) and 8 µM protein, 25 °C; gyration radius compared with that calculated for the hexamer of PDB 1KNX

B1: histidine phosphocarrier protein (HPr) kinase/phosphorylase of Bacillus subtilis (enzyme, UniProt O34483 1-310, looked up)
chain: MAKVRTKDVMEQFNLELISGEEGINRPITMSDLSRPGIEIAGYFTYYPRERVQLLGKTELSFFEQLPEEEKKQRMDSLCTDVTPAIILSRDMPIPQELIDASEKNGVPVLRSPLKTTRLSSRLTNFLESRLAPTTAIHGVLVDIYGVGVLITGKSGVGKSETALELVKRGHRLVADDCVEIRQEDQDTLVGNAPELIEHLLEIRGLGIINVMTLFGAGAVRSNKRITIVMNLELWEQGKQYDRLGLEEETMKIIDTEITKLTIPVRPGRNLAVIIEVAAMNFRLKRMGLNAAEQFTNKLADVIEDGEQEE
notes: HPr kinase/phosphorylase (HPrK/P) of Bacillus subtilis; theoretical molecular weight 36.6 kDa including the His-tag; Vector was a gift from Dr. A. Galinier; Oligomeric state depends on the buffer: monomer in pure water (DLS), mainly hexamer in 50 mM sodium phosphate pH 7.0; also called bsHPrK/P; HPrK/P; source: E. coli BL21 (DE3), purified (Ni-resin, Superdex 200 gel filtration), dialysed against …
stoichiometry N: 6
